# Experimental data as given in patent publication US20100159468A1.
# Target: Arf1-V5 (human) (UniProt P84077)
# Assay: cell-based or functional assay
# Arf1-V5 (human), sequence (P84077 2-181): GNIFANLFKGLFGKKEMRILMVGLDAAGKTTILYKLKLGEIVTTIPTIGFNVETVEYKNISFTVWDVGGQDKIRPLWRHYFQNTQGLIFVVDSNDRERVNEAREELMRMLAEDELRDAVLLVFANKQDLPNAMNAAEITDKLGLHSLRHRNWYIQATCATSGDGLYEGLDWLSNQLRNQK
substance,measurement,value
"GBF1-M832L-HA (hamster GBF1 with M830L, M832L relative to human GBF1, HA-tagged) (from UniProt Q9R1D7 1-1856)","Arf1-GTP level (GST-GGA3 pulldown, Western blot band intensity) in BFA-treated Vero cells expressing GBF1-M832L",45 % of control
same,"Arf1-GTP level (GST-GGA3 pulldown, Western blot band intensity) in GCA-treated Vero cells expressing GBF1-M832L",86 % of control
